{"source": "patent US7727950", "key": {"[1]": {"test_system": "T1, generic peptide substrate RARTLSFAEPG", "T1 sequence": "RARTLSFAEPG"}, "[2]": {"test_system": "T2, standard peptide substrate MHRQETVDCLK", "T2 sequence": "MHRQETVDCLK"}}}
{"substance": "alpha-isoform of calmodulin-dependent protein kinase II (CaMKII)", "values": [{"measurement": "Km", "setting": "[1]", "result": 300, "unit": "µM"}, {"measurement": "Km", "setting": "[2]", "result": 60, "unit": "µM"}]}
